Measurements taken from US20220363754A1 (SHANGHAI JUNSHI BIOSCIENCES, published 2022).
Read-outs that look alike come from different tables or passages of the source.

Key:
Experiment in all cases: ELISA, 0.5 ug/mL human TIGIT-ECD-mFc coated on the plate, detection with anti-IgG4-HRP, OD 450 nm; unit taken from the axis Log:ng/mL
[1] = molecular target: T1, recombinant protein hTIGIT-ECD-mFC (human; mouse, UniProt Q495A1 24-155)
T1 construct: range 24-155; Expressed in 293E cells; also called human TIGIT-ECD-mFc; not shown: murine IgG2a Fc domain of the vector MX2-mFc
T1 sequence (looked up): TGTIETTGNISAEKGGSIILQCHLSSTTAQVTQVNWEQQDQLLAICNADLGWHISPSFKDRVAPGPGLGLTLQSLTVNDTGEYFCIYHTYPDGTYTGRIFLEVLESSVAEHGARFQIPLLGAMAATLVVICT

[2] = molecular target: T1, recombinant protein hTIGIT-ECD-mFC; remark: listed apart in the source
[3] = molecular target: T1, recombinant protein hTIGIT-ECD-mFC; remark: listed apart in the source
[4] = molecular target: T1, recombinant protein hTIGIT-ECD-mFC; remark: listed apart in the source

EC50 [1]: 0.0362 µg/mL
EC50 [2]: 0.0262 µg/mL
EC50 [3]: 0.0275 µg/mL
EC50 [4]: 0.0194 µg/mL
B1: etigilimab (antibody, V domains shown)
VH: QVQLQESGPGLVKPSETLSLTCAVSGYSITSDYAWNWIRQPPGKGLEWIGYISYSGSTSYNPSLRSRVTISRDTSKNQFFLKLSSVTAADTAVYYCARRQVGLGFAYWGQGTLVTVSS
VL: DIQMTQSPSSLSASVGDRVTITCKASQDVSTAVAWYQQKPGKAPKLLIYSASYRYTGVPSRFSGSGSGTDFTFTISSLQPEDIATYYCQQHYSTPWTFGQGTKVEIK
